Changes are numbered by the printed parent chain.
T1: murine C4.4a on transfected CHO-S:mC4.4a cells (mouse, UniProt Q91YK8 33-343)
T1 construct: full length GPI-anchored form, stably transfected; also called Mouse C4.4a:CHO; mC4.4a: CHO
T1 sequence: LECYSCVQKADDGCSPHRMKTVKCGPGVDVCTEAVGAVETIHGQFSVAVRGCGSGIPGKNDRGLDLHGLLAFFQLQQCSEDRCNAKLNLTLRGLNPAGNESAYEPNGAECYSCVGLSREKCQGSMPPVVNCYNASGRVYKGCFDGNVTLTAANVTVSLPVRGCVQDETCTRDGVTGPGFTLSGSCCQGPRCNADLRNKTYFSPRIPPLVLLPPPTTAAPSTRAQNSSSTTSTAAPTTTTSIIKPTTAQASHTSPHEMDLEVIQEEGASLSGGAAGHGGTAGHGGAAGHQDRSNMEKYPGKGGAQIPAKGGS

T2: recombinant soluble murine C4.4a (mouse, UniProt Q91YK8 33-343, limits assumed)
T2 construct: also called mouse C4.4a; mC4.4a
T2 sequence (looked up): T1 sequence

T3: recombinant soluble human C4.4a (human, UniProt O95274 31-308)
T3 construct: recombinant, soluble, purified protein; also called hC4.4a; full length C4.4a
T3 sequence: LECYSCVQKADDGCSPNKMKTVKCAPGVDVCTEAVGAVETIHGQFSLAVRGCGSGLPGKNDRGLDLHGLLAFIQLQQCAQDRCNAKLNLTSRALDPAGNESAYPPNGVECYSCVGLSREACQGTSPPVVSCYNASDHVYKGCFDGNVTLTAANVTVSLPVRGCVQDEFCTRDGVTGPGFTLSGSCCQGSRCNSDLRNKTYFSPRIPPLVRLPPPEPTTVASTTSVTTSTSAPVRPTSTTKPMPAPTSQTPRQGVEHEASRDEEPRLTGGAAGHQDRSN

T4: human C4.4a natively expressed on tumor cell lines (human, UniProt O95274 31-326)
T4 construct: whole, on cells; also called NCI H292; NCI H322
T4 sequence (looked up): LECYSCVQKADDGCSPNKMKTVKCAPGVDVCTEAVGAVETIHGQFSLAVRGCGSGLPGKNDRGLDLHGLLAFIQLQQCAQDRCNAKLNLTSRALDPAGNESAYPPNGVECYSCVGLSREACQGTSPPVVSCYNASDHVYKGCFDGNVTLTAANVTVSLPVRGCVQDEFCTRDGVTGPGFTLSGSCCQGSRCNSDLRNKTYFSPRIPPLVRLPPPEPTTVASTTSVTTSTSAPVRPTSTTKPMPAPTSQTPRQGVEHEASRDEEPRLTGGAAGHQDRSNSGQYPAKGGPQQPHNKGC

T5: human C4.4a on transfected A549:hC4.4a cells (human, UniProt O95274 31-326)
T5 sequence: T4 sequence (looked up)

B1: B01-5 (antibody, human IgG1, V domains shown)
VH: EVQLLESGGGLVQPGGSLRLSCAASGFTFSNAWMSWVRQAPGKGLEWVSYISSSGSTIYYADSVKGRFTISRDNSKNTLYLQMNSLRAEDTAVYYCAREGLWAFDYWGQGTLVTVSS
VL: QSVLTQPPSVSGAPGQRVTISCTGSSSNIGAGYVVHWYQQLPGTAPKLLIYDNNKRPSGVPDRFSGSKSGTSASLAISGLRSEDEADYYCAAYDDSLSGPVFGGGTKLTVLG
notes: tested as human IgG1; also called B01-05
B2: B01-10 (antibody, human IgG1, V domains shown)
VH: B1 VH with N31S
VL: B1 VL
notes: tested as human IgG1
B3: B01-3 (antibody, human IgG1, V domains shown)
VH: B1 VH
VL: B1 VL with Q1E, Y93W, S96R, S98N
notes: tested as human IgG1; also called B01-03
B4: B01-12 (antibody, V domains shown)
VH: B1 VH with N31S, T57S, I58T, Y106K
VL: B1 VL with V10A, A13T, T23S, K55Q, Y93F, S96R
notes: tested as human IgG1
B5: D02-6 (antibody, human IgG1, V domains shown)
VH: EVQLLESGGGLVQPGGSLRLSCAASGFTFSDYQMTWIRQTPGKGLEWVSGISWNGGSTHYADSVKGRFTISRDNSKNTLYLQMNSLRAEDTAVYYCAKGDYLVYSSYYFKSWGQGTLVTVSS
VL: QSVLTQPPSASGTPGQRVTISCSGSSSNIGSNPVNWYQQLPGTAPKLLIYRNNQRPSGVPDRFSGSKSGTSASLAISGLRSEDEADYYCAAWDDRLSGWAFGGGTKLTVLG
notes: tested as human IgG1; also called D02-06
B6: D02-11 (antibody, V domains shown)
VH: B5 VH
VL: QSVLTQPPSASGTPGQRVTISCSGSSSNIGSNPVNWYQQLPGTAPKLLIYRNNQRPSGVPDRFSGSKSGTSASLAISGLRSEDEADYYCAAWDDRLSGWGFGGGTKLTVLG
notes: tested as human IgG1
B7: D02-7 (antibody, human IgG1, V domains shown)
VH: B5 VH with S105K
VL: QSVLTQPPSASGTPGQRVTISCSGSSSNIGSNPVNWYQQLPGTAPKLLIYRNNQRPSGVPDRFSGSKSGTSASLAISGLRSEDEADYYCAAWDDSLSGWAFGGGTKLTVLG
notes: tested as human IgG1; also called D02-07
B8: D02-13 (antibody, human IgG1, V domains shown)
VH: B5 VH with D31S, T40A, S105K
VL: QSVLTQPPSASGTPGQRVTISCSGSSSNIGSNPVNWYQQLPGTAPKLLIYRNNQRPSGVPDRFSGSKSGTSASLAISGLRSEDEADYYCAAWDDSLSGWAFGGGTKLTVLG
notes: tested as human IgG1
B9: D02-4 (antibody, human IgG1, V domains shown)
VH: B5 VH with S106A, K110D
VL: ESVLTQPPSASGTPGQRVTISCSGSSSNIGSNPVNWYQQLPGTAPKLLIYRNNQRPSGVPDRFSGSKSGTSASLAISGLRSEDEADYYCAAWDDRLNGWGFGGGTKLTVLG
notes: tested as human IgG1; also called D02-04
B10: M20-D02 S-A Fab LC V97A (Fab, V domains shown)
VH: B5 VH with I51V, G56A, S57R, S106A, K110D, S121T
VL: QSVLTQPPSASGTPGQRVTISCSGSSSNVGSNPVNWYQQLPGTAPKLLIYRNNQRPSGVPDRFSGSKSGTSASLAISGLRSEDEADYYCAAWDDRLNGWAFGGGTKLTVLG
notes: Fab with 3×HA-tag and hexa-histidine tag at the C-terminus of the heavy chain, culture supernatant
B11: M20-D02 S-A Fab LC D92G (Fab, V domains shown)
VH: B5 VH with I51V, G56A, S57R, S106A, K110D, S121T
VL: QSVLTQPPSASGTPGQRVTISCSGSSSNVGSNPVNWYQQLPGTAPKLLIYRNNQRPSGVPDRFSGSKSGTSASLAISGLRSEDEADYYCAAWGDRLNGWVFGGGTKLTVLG
notes: as for B10
B12: M20-D02 S-A Fab LC V97G (Fab, V domains shown)
VH: B5 VH with I51V, G56A, S57R, S106A, K110D, S121T
VL: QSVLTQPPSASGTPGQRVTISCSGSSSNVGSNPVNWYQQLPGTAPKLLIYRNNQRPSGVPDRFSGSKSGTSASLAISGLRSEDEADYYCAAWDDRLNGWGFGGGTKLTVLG
notes: as for B10

The binders below were run against T1, murine C4.4a on transfected … (assay: FACS titration of IgG1 on CHO-S:mC4.4a cells).

Row | Binder | EC50 [nM]
1 | B1 | 1.2
2 | B2 | 0.43
3 | B3 | 0.36
4 | B4 | 1.4
5 | B5 | 1
6 | B6 | 1.7
7 | B7 | 0.78
8 | B8 | 2

What follows are binders tested against T2, recombinant soluble murine C4.4a (assay: SPR (Biacore T100), IgG1 captured by anti-human Fc, soluble C4.4a injected, 1:1 fit).
Protocol: (§1) Binding affinities of anti C4.4 antibodies were determined by surface plasmon resonance analysis on a Biacore T100 instrument (GE Healthcare Biacore, Inc.). Antibodies were immobilized onto a CM5 sensor chip through an indirect capturing reagent, anti-human IgG Fc. Reagents from the “Human Antibody Capture Kit” (BR-1008-39, GE Healthcare Biacore, Inc.) were used as described by the manufacturer. Approximately 5000 RU monoclonal mouse anti-human IgG (Fc) antibody were immobilized per cell. Anti C4.4 antibodies were injected at a concentration of 5 μg/ml at 10 μl/min for 10 sec to reach a capturing level of approximately 200 to 600 RU. Various concentrations (400 nM, 200 nM, 100 nM, 50 nM, 25 nM, 12.5 nM, 6.25 nM, and 3.12 nM) in HEPES-EP buffer (GE Healthcare Biacore, Inc.) of human or murine C4.4a were injected over immobilized anti C4.4a antibodies at a flow rate of 60 μl/min for 3 minutes and the dissociation was allowed for 10 minutes. Sensograms were generated after in-line reference cell correction followed by buffer sample subtraction. The dissociation equilibrium constant (KD) was calculated based on the ratio of association (kₒₙ) and dissociation rated (koff) constants, obtained by fitting sensograms with a first order 1:1 binding model using Biavaluation Software (version 4.0).

Row | Binder | Kd [nM]
9 | B1 | 10
10 | B2 | 1
11 | B3 | 120
12 | B4 | 2
13 | B5 | 21
14 | B9 | 56
15 | B6 | 24
16 | B7 | 22
17 | B8 | 42

The binders below were run against T3, recombinant soluble human C4.4a in the same assay as above.
Protocol: as §1

Row | Binder | Kd [nM]
18 | B1 | 4
19 | B2 | 4
20 | B3 | 60
21 | B4 | 1
22 | B5 | 6
23 | B9 | 29
24 | B6 | 10
25 | B7 | 9
26 | B8 | 2

What follows are binders tested against T2, recombinant soluble murine C4.4a (assay: direct ELISA, Fab supernatant on coated mouse C4.4a, signal normalized to Fab quantity).
Protocol: (§2) Cultures were diluted in 10% Smart Block in PBST and bound to the MTP plates for 1 h at 20° C. After washing with PBST, captured antibodies were incubated with a HRP-coupled anti-lambda antibody (Sigma, A5175) and detected by incubating the plate with 10 μM amplex red substrate (Invitrogen, A12222) for 30 minutes at 20° C. in the dark followed by fluorescence measurement. Determined quantification signals were checked to be in the dynamic range of an calibration series built up with concentrated parental Fab (M31-B01 or M20-D02-S-A) expression culture supernatant allowing a relative quantification of each individual Fab expression sample.
(§3) To determine the activity of the mutated Fab variants on recombinant soluble human or mouse C4.4a a direct ELISA assay format was used. Briefly, MTP plates (Nunc maxisorp black, 460518) were coated with 2 μg/ml either human or mouse C4.4a diluted in coating buffer (Candor Bioscience GmbH, 121125) and incubated for 15 h at 4° C. After washing 3 times with PBST, plates were blocked with 100% Smart Block (Candor Bioscience GmbH, 113500) for 1 h at 20° C. and the washing steps were repeated. For binding of the Fab antibody fragments 20 μl of culturing supernatants were added to the plates for 1 h at 20° C. followed by washing. In some cases the washing stringency was increased by an additional incubation step with 10% Smart Block in PBST for 90 min followed by washing 3 times with PBST (“process B” in Table 10b). Bound parental Fabs and variants were then detected by a HA-epitope tag specific antibody HRP conjugate (Bethyl, A190-108P). 10 μM amplex red substrate (Invitrogen, A12222) was added to the plates and the fluorescence signal was detected using a common fluorescence reader, e.g. Tecan Ultra. Quantity normalized affinity signals were calculated as ratios of background corrected affinity and quantification signals in the respective ELISA: (Signalaffinity−Backgroundaffinity)/(Signalquantity−Backgroundquantity). The resulting values correlate mainly with the affinity in a positive manner, whereas not normalized values correlate additionally with the concentration of the binding Fab in the sample.

Row | Binder | normalized affinity signal (average)
27 | B10 | 0.52
28 | B11 | 0.1
29 | B12 | 0.3

The binders below were run against T3, recombinant soluble human C4.4a (assay: direct ELISA, Fab supernatant on coated human C4.4a, signal normalized to Fab quantity).
Protocol: as §2, §3

Row | Binder | normalized affinity signal (average)
30 | B10 | 1.32
31 | B11 | 0.64
32 | B12 | 1.21

The binders below were run against T4, human C4.4a natively expressed on tumor … (assay: FACS titration of IgG1 on NCI H292 cells).
Protocol: FACS titration was performed in a 96 well microtiter plate, in which serial dilutions of the primary antibody in a volume of 50 W of FACS buffer (3% FCS, in PBS) were mixed with 50 μl of a cell suspension consisting of 2×10^5 cells/ml which had been detached with Cell Dissociation Solution (1×) Non-enzymatic (Sigma), and resuspended in FACS buffer. Incubation was performed at 4° C. for 1 hour with agitation. Cells were pelleted, washed with FACS buffer and resuspended in 100 μl/well of Phycoerythrin labeled goat anti human IgG (Dianova) solution in FACS buffer. Incubation and washing was performed as before. Analysis of cell-bound antibodies was done at the respective detection wavelength using the FACS Array device. EC₅₀ values were determined from fluorescence medians of duplicates using Swift 8.0 software.

Row | Binder | EC50 [nM]
33 | B1 | 0.05
34 | B2 | 0.1
35 | B3 | 0.06
36 | B5 | 0.02
37 | B6 | 0.01
38 | B7 | 0.03
39 | B8 | 0.12

These binders were tested against T5, human C4.4a on transfected A549:hC4.4a … (assay: cell-based or functional assay).

Row | Binder | internalization t½ [min] into A549:hC4.4a cells (CypHer 5E labeled antibody) [min]
40 | B2 | 30
41 | B3 | 55
42 | B5 | 39
43 | B6 | 22
44 | B7 | 33

Source: patent publication US20120321619A1 (Bayer, published 2012)
